# Data as given in patent US11306156.
# Experiments:
# [1] = biological target: tissue factor (TF) antigen (UniProt P13726); assay: SPR; log ratio against wild-type D3H44 Fab
# [2] = biological target: tissue factor (TF) antigen (UniProt P13726); assay: SPR (ProteOn XPR36): Fab captured via His tag on anti-penta-His, TF as analyte, 1:1 fit
# [3] = biological target: tissue factor (TF) antigen (UniProt P13726); assay: SPR, Fab captured by anti-His, TF as analyte
# [4] = biological target: tissue factor (TF) antigen (UniProt P13726); assay: SPR; reference wild-type D3H44 Fab
# [5] = biological target: tissue factor (TF) antigen (UniProt P13726); assay: SPR (ProteOn XPR36): His-tagged Fab captured on anti-penta-His surface, TF as analyte, 1:1 fit
# Sequence of tissue factor (TF) antigen (P13726 33-251 limits assumed): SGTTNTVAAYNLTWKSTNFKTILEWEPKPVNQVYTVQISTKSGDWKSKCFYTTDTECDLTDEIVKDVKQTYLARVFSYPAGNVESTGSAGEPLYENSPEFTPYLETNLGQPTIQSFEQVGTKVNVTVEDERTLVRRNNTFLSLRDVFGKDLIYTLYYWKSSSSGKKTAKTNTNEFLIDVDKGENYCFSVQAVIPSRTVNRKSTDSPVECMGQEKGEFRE
substance,measurement,setting,value
"D3H44 Fab heterodimer, H S186R / L Q124E_Q160E_T180E (H1L1 of LCCA sets 9876 and 9874)",Change in KD with respect to wild type (-(log(KD design) - log(KD wt))),[1],0.51
same,Kd,[2],0.05 nM
"D3H44 Fab heterodimer, H S186R / L Q124E_S176L_T180E (H1L1 of LCCA set 9886)",Change in KD with respect to wild type (-(log(KD design) - log(KD wt))),[1],-0.06
same,Kd,[2],0.18 nM
"D3H44 Fab heterodimer, H S186R / L Q124E_T180E (H1L1 of LCCA sets 9891, 9901, 9898 and 9893)",Change in KD with respect to wild type (-(log(KD design) - log(KD wt))),[1],0.36
same,Kd,[2],0.07 nM
"D3H44 Fab heterodimer, heavy L124E_L143D_K145M / light Q124K_V133G_Q160K_S176R",Kd,[3],0.27 nM
same,Change in KD of h1|1 Fab heterodimer with respect to wild type (-(log(KD design) - log(KD wt))),[4],-0.24
"D3H44 Fab heterodimer, heavy L124E_L143D_K145M / light Q124K_V133G_S176R_T178K",Kd,[3],0.22 nM
same,Change in KD of h1|1 Fab heterodimer with respect to wild type (-(log(KD design) - log(KD wt))),[4],-0.15
"D3H44 Fab heterodimer, heavy L124E_L143D_K145T / light Q124K_V133G_S176R_T178K",Kd,[3],0.19 nM
same,Change in KD of h1|1 Fab heterodimer with respect to wild type (-(log(KD design) - log(KD wt))),[4],-0.08
"D3H44 Fab heterodimer, heavy L124E_L143D_K145T / light Q124K_V133G_S176R_T178R",Kd,[3],0.16 nM
same,Change in KD of h1|1 Fab heterodimer with respect to wild type (-(log(KD design) - log(KD wt))),[4],-0.02
"D3H44 Fab heterodimer, heavy L124E_L143E_K145M / light Q124K_V133G_Q160K_S176R",Kd,[3],0.28 nM
same,Change in KD of h1|1 Fab heterodimer with respect to wild type (-(log(KD design) - log(KD wt))),[4],-0.26
"D3H44 Fab heterodimer, heavy L124E_L143E_K145M / light Q124K_V133G_S176R_T178K",Kd,[3],0.24 nM
same,Change in KD of h1|1 Fab heterodimer with respect to wild type (-(log(KD design) - log(KD wt))),[4],-0.19
"D3H44 Fab heterodimer, heavy L124E_L143E_K145M / light Q124K_V133G_S176R_T178R",Kd,[3],0.31 nM
same,Change in KD of h1|1 Fab heterodimer with respect to wild type (-(log(KD design) - log(KD wt))),[4],-0.29
"D3H44 Fab heterodimer, heavy L124E_L143E_K145T / light Q124K_V133G_Q160K_S176R",Kd,[3],0.2 nM
same,Change in KD of h1|1 Fab heterodimer with respect to wild type (-(log(KD design) - log(KD wt))),[4],-0.12
"D3H44 Fab heterodimer, heavy L124R_Q179K / light Q124E_V133G_S176D_T178E_T180E",Kd,[3],0.22 nM
same,Change in KD of h2|2 Fab heterodimer with respect to wild type (-(log(KD design) - log(KD wt))),[4],-0.15
"D3H44 Fab heterodimer, heavy L124R_Q179K / light V133G_S176D_T178E_T180E",Kd,[3],0.23 nM
same,Change in KD of h2|2 Fab heterodimer with respect to wild type (-(log(KD design) - log(KD wt))),[4],-0.16
"D3H44 Fab heterodimer, heavy L124R_S186K / light Q124E_V133G_S176D_T178D_T180E",Kd,[3],0.26 nM
same,Change in KD of h2|2 Fab heterodimer with respect to wild type (-(log(KD design) - log(KD wt))),[4],-0.23
"D3H44 Fab heterodimer, heavy L124R_S186K / light V133G_S176D_T178D_T180E",Kd,[3],0.18 nM
same,Change in KD of h2|2 Fab heterodimer with respect to wild type (-(log(KD design) - log(KD wt))),[4],-0.07
"D3H44 Fab heterodimer, heavy L124R_S186R / light Q124E_V133G_S176D_T178D_T180E",Kd,[3],0.26 nM
same,Change in KD of h2|2 Fab heterodimer with respect to wild type (-(log(KD design) - log(KD wt))),[4],-0.21
"D3H44 Fab heterodimer, heavy L124R_S186R / light V133G_S176D_T178E_T180E",Kd,[3],0.22 nM
same,Change in KD of h2|2 Fab heterodimer with respect to wild type (-(log(KD design) - log(KD wt))),[4],-0.15
D3H44 H1L1 Fab heterodimer of LCCA set 9060 (H1 A139W_L143E_K145T_Q179E; L1 F116A_Q124R_L135V_T178R),Change in median values of KD of h1|1 Fab heterodimer compared to wild type (-(log(KD design)-log(KD wt))),[5],0.04 log units
same,Kd,[5],0.14 nM
D3H44 H1L1 Fab heterodimer of LCCA set 9066 (H1 F122C_L124E; L1 Q124C_V133G_S176R),Change in median values of KD of h1|1 Fab heterodimer compared to wild type (-(log(KD design)-log(KD wt))),[5],-0.04 log units
same,Kd,[5],0.17 nM
D3H44 H1L1 Fab heterodimer of LCCA set 9082 (H1 K145T_Q179E; L1 S131K),Change in median values of KD of h1|1 Fab heterodimer compared to wild type (-(log(KD design)-log(KD wt))),[5],-0.01 log units
same,Kd,[5],0.16 nM
D3H44 H1L1 Fab heterodimer of LCCA sets 9101 and 9100 (H1 L124A_Q179K; L1 Q124E_V133W_T180E),Change in median values of KD of h1|1 Fab heterodimer compared to wild type (-(log(KD design)-log(KD wt))),[5],0.1 log units
same,Kd,[5],0.12 nM
D3H44 H1L1 Fab heterodimer of LCCA sets 9571 and 9572 (H1 L124W_L143F_K145T_Q179E; L1 S131K_V133A_S176T_T178L),Change in median values of KD of h1|1 Fab heterodimer compared to wild type (-(log(KD design)-log(KD wt))),[5],-0.21 log units
same,Kd,[5],0.26 nM
D3H44 H1L1 Fab heterodimer of LCCA sets 9786 and 9785 (H1 Q179K; L1 Q124E_T178E_T180E),Change in median values of KD of h1|1 Fab heterodimer compared to wild type (-(log(KD design)-log(KD wt))),[5],0.1 log units
same,Kd,[5],0.13 nM
